Test results reported in ChEMBL document CHEMBL2074236, “Renal organic cation and nucleoside transport” (Biochem Pharmacol, 2002).

B1: Solute carrier family 22 member 2 (Rattus norvegicus) (protein)
chain: MSTVDDILEHIGEFHLFQKQTFFLLALLSGAFTPIYVGIVFLGFTPDHHCWSPGAAKLSQRCGWSQAEELNYTVPGLGPSDEASFLSQCMRYEVDWNQSTLDCVDPLSSLAADRNQLPLGPCEHGWVYNTPGSSIVTEFNLVCAHSWMLDLFQSVVNVGFFIGAMMIGYLADRFGRKFCLLVTILINAISGALMAISPNYAWMLVFRFLQGLVSKAGWLIGYILITEFVGLGYRRMVGICYQIAFTVGLLILAGVAYVIPNWRWLQFAVTLPNFCFLLYFWCIPESPRWLISQNKIVKAMKIIKHIAKKNGKSVPVSLQNLTPDEDAGKKLNPSFLDLVRTPQIRKHTLILMYNWFTSSVLYQGLIMHMGLAGDNIYLDFFYSALVEFPAAFIIILTIDRVGRRYPWAVSNMVAGAACLASVFIPDDLQWLKITIACLGRMGITMAYEMVCLVNAELYPTYIRNLGVLVCSSMCDIGGIITPFLVYRLTDIWMEFPLVVFAVVGLVAGALVLLLPETKGKALPETIEDAENMQRPRKKKEKRIYLQVKQADRPLS
B2: Solute carrier family 22 member 1 (Rattus norvegicus) (protein)
chain: MPTVDDVLEQVGEFGWFQKQAFLLLCLISASLAPIYVGIVFLGFTPGHYCQNPGVAELSQRCGWSQAEELNYTVPGLGPSDEASFLSQCMRYEVDWNQSTLDCVDPLSSLVANRSQLPLGPCEHGWVYDTPGSSIVTEFNLVCGDAWKVDLFQSCVNLGFFLGSLVVGYIADRFGRKLCLLVTTLVTSVSGVLTAVAPDYTSMLLFRLLQGMVSKGSWVSGYTLITEFVGSGYRRTTAILYQMAFTVGLVGLAGVAYAIPDWRWLQLAVSLPTFLFLLYYWFVPESPRWLLSQKRTTRAVRIMEQIAQKNGKVPPADLKMLCLEEDASEKRSPSFADLFRTPNLRKHTVILMYLWFSCAVLYQGLIMHVGATGANLYLDFFYSSLVEFPAAFIILVTIDRIGRIYPIAASNLVTGAACLLMIFIPHELHWLNVTLACLGRMGATIVLQMVCLVNAELYPTFIRNLGMMVCSALCDLGGIFTPFMVFRLMEVWQALPLILFGVLGLTAGAMTLLLPETKGVALPETIEEAENLGRRKSKAKENTIYLQVQTGKSSST

Substrate: Nc1ncnc2c1ccn2[C@H]1C[C@H](O)[C@@H](CO)O1
Assay: TP_TRANSPORTER: uptake (pH 5.4) in Xenopus laevis oocytes
Type: functional, cell-based, Oocyte

Row | Protein | Km [µM]
1 | B1 | 212
2 | B2 | 23
